From patent US20210380978

Test system: HNRNPH1 isoform A (Homo sapiens)
Test: MST
Settings: 50 mM Tris pH 8.0, 300 mM KCl, 0.02% NP-40, 10% glycerol, 0.5 mg/ml heparin, 22 C; 20 nM RNA

INCA1 major eCLIP peak 50-nt RNA oligo showed a Kd of 762 nM.
